This note sets out measurements from paper doi:10.1101/2023.07.28.550924 (bioRxiv, 2023).

By stoichiometry N is commonly meant a count of units in the complex or per binding partner. For orientation: Kd means a measure of binding affinity in units of concentration.

The data set “SEC” concerns the molecule itself. Nature of the data set: SEC. (SEC sorts molecules by how far they enter the pores of the column.)
Data set [1] deals with T1, Spirochaeta thermophila YeeE (Spirochaeta thermophila, UniProt G0GAP6 1-328).
T1 sequence (looked up): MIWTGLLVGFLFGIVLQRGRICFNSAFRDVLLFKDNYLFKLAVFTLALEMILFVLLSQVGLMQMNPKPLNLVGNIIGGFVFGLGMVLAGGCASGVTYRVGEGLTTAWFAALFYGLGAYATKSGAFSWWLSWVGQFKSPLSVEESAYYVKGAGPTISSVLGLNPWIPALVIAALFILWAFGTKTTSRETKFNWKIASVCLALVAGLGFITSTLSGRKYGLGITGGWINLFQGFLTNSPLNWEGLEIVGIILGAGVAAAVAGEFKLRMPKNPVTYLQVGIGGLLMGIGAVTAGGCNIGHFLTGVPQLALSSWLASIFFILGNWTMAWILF
Nature of the data set: BLI.

B1: Spirochaeta thermophila YeeD, His-tagged, wild type (natural protein, UniProt G0GAP7 1-80, looked up)
chain: MANYQVSKEIDVRGEVCPIPDVEAKRAVQSANDGEIILVRIDYPLSKERIPETVKKLGSEVLEIEEAAPGEWNIYIKVKK
Regarding B1, the “stoichiometry N” value in the data set “SEC” was determined as 2. The molecule also registered a Kd in data set [1] of 1600 ± 200 nM.
